Measured values taken from PMC10397247.

How the values were obtained:
P5mS = biological target: T1, P5mS; assay: two-hybrid library CC1;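 further: natural log of median RNA to DNA barcode read ratio; higher means stronger binding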
T1 chain: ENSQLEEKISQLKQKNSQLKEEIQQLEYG

P6SC1 = biological target: T2, P6SC1; assay: two-hybrid library CC1; settings: mean of both orientations;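 further: natural log of median RNA to DNA barcode read ratio; higher means stronger binding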
T2 chain: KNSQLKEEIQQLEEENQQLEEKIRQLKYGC

P6SC2 = biological target: T3, P6SC2; assay: two-hybrid library CC1; settings: mean of both orientations;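 further: natural log of median RNA to DNA barcode read ratio; higher means stronger binding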
T3 chain: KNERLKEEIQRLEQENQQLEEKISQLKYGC

P6 = biological target: T4, P6; assay: two-hybrid library CC1; settings: mean of both orientations;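 further: natural log of median RNA to DNA barcode read ratio; higher means stronger binding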
T4 chain: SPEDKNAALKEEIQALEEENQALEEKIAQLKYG

P6mS = biological target: T5, P6mS; assay: two-hybrid library CC1; settings: mean of both orientations
T5 chain: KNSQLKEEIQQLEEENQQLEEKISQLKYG

P7 = biological target: T6, P7; assay: two-hybrid library CC1; settings: mean of both orientations
T6 chain: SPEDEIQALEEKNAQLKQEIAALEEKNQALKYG

P7mS = biological target: T7, P7mS; assay: two-hybrid library CC1; settings: mean of both orientations
T7 chain: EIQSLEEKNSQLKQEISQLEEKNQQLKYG

P8 = biological target: T8, P8; assay: two-hybrid library CC1; settings: mean of both orientations
T8 chain: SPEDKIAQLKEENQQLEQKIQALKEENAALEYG

P8mS = biological target: T9, P8mS; assay: two-hybrid library CC1; settings: mean of both orientations
T9 chain: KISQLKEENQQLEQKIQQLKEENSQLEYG

P9 = biological target: T10, P9; assay: two-hybrid library CC1; settings: mean of both orientations
T10 chain: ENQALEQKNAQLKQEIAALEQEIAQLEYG

4H3049-AA = biological target: T11, 4H3049-AA; assay: two-hybrid library CCmax
T11 chain: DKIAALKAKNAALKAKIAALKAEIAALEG

4H3094-AA = biological target: T12, 4H3094-AA; assay: two-hybrid library CCmax; settings: mean of both orientations
T12 chain: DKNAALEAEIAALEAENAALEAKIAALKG

4H3129-AA = biological target: T13, 4H3129-AA; assay: two-hybrid library CCmax; settings: mean of both orientations
T13 chain: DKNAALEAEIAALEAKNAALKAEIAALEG

4H32-AA = biological target: T14, 4H32-AA; assay: two-hybrid library CCmax
T14 chain: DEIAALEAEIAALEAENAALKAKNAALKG

4H324-AA = biological target: T15, 4H324-AA; assay: two-hybrid library CCmax; settings: mean of both orientations
T15 chain: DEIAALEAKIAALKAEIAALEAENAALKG

4H337-AA = biological target: T16, 4H337-AA; assay: two-hybrid library CCmax; settings: mean of both orientations
T16 chain: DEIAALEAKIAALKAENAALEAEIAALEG

4H341-AA = biological target: T17, 4H341-AA; assay: two-hybrid library CCmax; settings: mean of both orientations
T17 chain: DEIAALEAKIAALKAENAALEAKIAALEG

4H3414-AA = biological target: T18, 4H3414-AA; assay: two-hybrid library CCmax; settings: mean of both orientations
T18 chain: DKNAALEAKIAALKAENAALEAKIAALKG

4H3449-AA = biological target: T19, 4H3449-AA; assay: two-hybrid library CCmax; settings: mean of both orientations
T19 chain: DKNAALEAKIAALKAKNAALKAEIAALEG

4H3587-AA = biological target: T20, 4H3587-AA; assay: two-hybrid library CCmax
T20 chain: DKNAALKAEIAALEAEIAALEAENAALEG

4H3590-AA = biological target: T21, 4H3590-AA; assay: two-hybrid library CCmax; settings: mean of both orientations
T21 chain: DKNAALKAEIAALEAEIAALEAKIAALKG

4H3595-AA = biological target: T22, 4H3595-AA; assay: two-hybrid library CCmax; settings: mean of both orientations
T22 chain: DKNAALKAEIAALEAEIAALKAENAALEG

4H3619-AA = biological target: T23, 4H3619-AA; assay: two-hybrid library CCmax; settings: mean of both orientations
T23 chain: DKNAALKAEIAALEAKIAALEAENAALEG

4H3625-AA = biological target: T24, 4H3625-AA; assay: two-hybrid library CCmax; settings: mean of both orientations
T24 chain: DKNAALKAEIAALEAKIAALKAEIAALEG

4H3629-AA = biological target: T25, 4H3629-AA; assay: two-hybrid library CCmax; settings: mean of both orientations
T25 chain: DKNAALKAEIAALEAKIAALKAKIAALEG

4H3777-AA = biological target: T26, 4H3777-AA; assay: two-hybrid library CCmax; settings: mean of both orientations
T26 chain: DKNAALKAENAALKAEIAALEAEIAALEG

4H3782-AA = biological target: T27, 4H3782-AA; assay: two-hybrid library CCmax; settings: mean of both orientations
T27 chain: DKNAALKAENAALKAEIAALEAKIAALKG

4H380-AA = biological target: T28, 4H380-AA; assay: two-hybrid library CCmax; settings: mean of both orientations
T28 chain: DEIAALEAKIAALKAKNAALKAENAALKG

4H384-AA = biological target: T29, 4H384-AA; assay: two-hybrid library CCmax; settings: mean of both orientations
T29 chain: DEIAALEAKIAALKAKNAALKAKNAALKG

4H3915-AA = biological target: T30, 4H3915-AA; assay: two-hybrid library CCmax; settings: mean of both orientations
T30 chain: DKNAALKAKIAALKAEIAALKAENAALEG

4H3939-AA = biological target: T31, 4H3939-AA; assay: two-hybrid library CCmax; settings: mean of both orientations
T31 chain: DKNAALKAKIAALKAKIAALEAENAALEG

4H3969-AA = biological target: T32, 4H3969-AA; assay: two-hybrid library CCmax; settings: mean of both orientations
T32 chain: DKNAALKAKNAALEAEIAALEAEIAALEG

4H3974-AA = biological target: T33, 4H3974-AA; assay: two-hybrid library CCmax; settings: mean of both orientations
T33 chain: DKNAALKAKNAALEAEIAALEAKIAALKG

4H4038-AA = biological target: T34, 4H4038-AA; assay: two-hybrid library CCmax; settings: mean of both orientations
T34 chain: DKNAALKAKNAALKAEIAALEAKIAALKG

4H43-AA = biological target: T35, 4H43-AA; assay: two-hybrid library CCmax; settings: mean of both orientations
T35 chain: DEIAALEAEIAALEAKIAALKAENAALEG

4H432-AA = biological target: T36, 4H432-AA; assay: two-hybrid library CCmax; settings: mean of both orientations
T36 chain: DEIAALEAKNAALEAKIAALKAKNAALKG

4H446-AA = biological target: T37, 4H446-AA; assay: two-hybrid library CCmax; settings: mean of both orientations
T37 chain: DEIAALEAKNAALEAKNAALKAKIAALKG

4H451-AA = biological target: T38, 4H451-AA; assay: two-hybrid library CCmax; settings: mean of both orientations
T38 chain: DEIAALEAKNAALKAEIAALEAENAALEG

4H464-AA = biological target: T39, 4H464-AA; assay: two-hybrid library CCmax; settings: mean of both orientations
T39 chain: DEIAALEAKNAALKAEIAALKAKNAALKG

4H483-AA = biological target: T40, 4H483-AA; assay: two-hybrid library CCmax; settings: mean of both orientations
T40 chain: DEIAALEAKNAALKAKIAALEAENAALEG

4H510-AA = biological target: T41, 4H510-AA; assay: two-hybrid library CCmax; settings: mean of both orientations
T41 chain: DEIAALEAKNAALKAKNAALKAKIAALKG

4H63-AA = biological target: T42, 4H63-AA; assay: two-hybrid library CCmax; settings: mean of both orientations
T42 chain: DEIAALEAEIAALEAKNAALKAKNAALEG

4H_APH = biological target: T43, 4H_APH; assay: two-hybrid library CCmax; settings: mean of both orientations
T43 chain: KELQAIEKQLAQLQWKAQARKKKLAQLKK

4H_BCR = biological target: T44, 4H_BCR; assay: two-hybrid library CCmax; settings: mean of both orientations
T44 chain: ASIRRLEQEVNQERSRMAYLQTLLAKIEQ

4H_GCN4 = assay: two-hybrid library CCmax
GCN2_T = assay: two-hybrid library CCmax; settings: mean of both orientations
O11-AA = biological target: T45, O11-AA; assay: two-hybrid library CCmax; settings: mean of both orientations
T45 chain: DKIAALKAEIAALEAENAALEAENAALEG

O13-AA = biological target: T46, O13-AA; assay: two-hybrid library CCmax; settings: mean of both orientations
T46 chain: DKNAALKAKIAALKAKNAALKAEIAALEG

O14-AA = biological target: T47, O14-AA; assay: two-hybrid library CCmax; settings: mean of both orientations
T47 chain: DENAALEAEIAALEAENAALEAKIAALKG

Chain of 4H_GCN4 (chain, as listed by the source): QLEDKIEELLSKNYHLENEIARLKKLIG

ENSQLEEKISQLKQKNSQLKEEIQQLEYG [P5mS]
interaction score (P5mS): -3.02 | interaction score (P6SC1): 0.104 | interaction score (P6SC2): 0.207 | interaction score (P6): 0.124 | interaction score (P6mS): -0.205 | interaction score (P7): -2.73 | interaction score (P7mS): -2.67 | interaction score (P8): -2.02 | interaction score (P8mS): -2.74 | interaction score (P9): -2.67

DKIAALKAKNAALKAKIAALKAEIAALEG [4H3049-AA]
interaction score (4H3049-AA): -0.619 | interaction score (4H3094-AA): 1.63 | interaction score (4H3129-AA): -1.06 | interaction score (4H32-AA): 0.0606 | interaction score (4H324-AA): -0.645 | interaction score (4H337-AA): 1.59 | interaction score (4H341-AA): 0.355 | interaction score (4H3414-AA): -0.414 | interaction score (4H3449-AA): -1.67 | interaction score (4H3587-AA): -0.69 | interaction score (4H3590-AA): 1.4 | interaction score (4H3595-AA): -1.01 | interaction score (4H3619-AA): -0.754 | interaction score (4H3625-AA): -0.0279 | interaction score (4H3629-AA): -0.842 | interaction score (4H3777-AA): -0.0348 | interaction score (4H3782-AA): 1.57 | interaction score (4H380-AA): -1.68 | interaction score (4H384-AA): -1.42 | interaction score (4H3915-AA): -1.52 | interaction score (4H3939-AA): -0.638 | interaction score (4H3969-AA): -0.09 | interaction score (4H3974-AA): 1.52 | interaction score (4H4038-AA): 1.1 | interaction score (4H43-AA): 1.67 | interaction score (4H432-AA): -0.00195 | interaction score (4H446-AA): -0.416 | interaction score (4H451-AA): -1.18 | interaction score (4H464-AA): 0.452 | interaction score (4H483-AA): -1.48 | interaction score (4H510-AA): -1.55 | interaction score (4H63-AA): -1.15 | interaction score (4H_APH): -1.8 | interaction score (4H_BCR): -2.02 | interaction score (4H_GCN4): -0.802 | interaction score (GCN2_T): -0.776 | interaction score (O11-AA): 0.334 | interaction score (O13-AA): -1.55 | interaction score (O14-AA): 1.66
